Measurements published in IntAct's records for PubMed 15009215.

B1: Emerin (Homo sapiens), P50402 (parent)
chain: MDNYADLSDTELTTLLRRYNIPHGPVVGSTRRLYEKKIFEYETQRRRLSPPSSSAASSYSFSDLNSTRGDADMYDLPKKEDALLYQSKGYNDDYYEESYFTTRTYGEPESAGPSRAVRQSVTSFPDADAFHHQVHDDDLLSSSEEECKDRERPMYGRDSAYQSITHYRPVSASRSSLDLSYYPTSSSTSFMSSSSSSSSWLTRRAIRPENRAPGAGLGQDRQVPLWGQLLLFLVFVIVLFFIYHFMQAEEGNPF

Variants of: B1
Conditions: with bclf1_human BCLAF1, Q9NYF8
Chain of bclf1_human BCLAF1, Q9NYF8 (Q9NYF8 whole entry): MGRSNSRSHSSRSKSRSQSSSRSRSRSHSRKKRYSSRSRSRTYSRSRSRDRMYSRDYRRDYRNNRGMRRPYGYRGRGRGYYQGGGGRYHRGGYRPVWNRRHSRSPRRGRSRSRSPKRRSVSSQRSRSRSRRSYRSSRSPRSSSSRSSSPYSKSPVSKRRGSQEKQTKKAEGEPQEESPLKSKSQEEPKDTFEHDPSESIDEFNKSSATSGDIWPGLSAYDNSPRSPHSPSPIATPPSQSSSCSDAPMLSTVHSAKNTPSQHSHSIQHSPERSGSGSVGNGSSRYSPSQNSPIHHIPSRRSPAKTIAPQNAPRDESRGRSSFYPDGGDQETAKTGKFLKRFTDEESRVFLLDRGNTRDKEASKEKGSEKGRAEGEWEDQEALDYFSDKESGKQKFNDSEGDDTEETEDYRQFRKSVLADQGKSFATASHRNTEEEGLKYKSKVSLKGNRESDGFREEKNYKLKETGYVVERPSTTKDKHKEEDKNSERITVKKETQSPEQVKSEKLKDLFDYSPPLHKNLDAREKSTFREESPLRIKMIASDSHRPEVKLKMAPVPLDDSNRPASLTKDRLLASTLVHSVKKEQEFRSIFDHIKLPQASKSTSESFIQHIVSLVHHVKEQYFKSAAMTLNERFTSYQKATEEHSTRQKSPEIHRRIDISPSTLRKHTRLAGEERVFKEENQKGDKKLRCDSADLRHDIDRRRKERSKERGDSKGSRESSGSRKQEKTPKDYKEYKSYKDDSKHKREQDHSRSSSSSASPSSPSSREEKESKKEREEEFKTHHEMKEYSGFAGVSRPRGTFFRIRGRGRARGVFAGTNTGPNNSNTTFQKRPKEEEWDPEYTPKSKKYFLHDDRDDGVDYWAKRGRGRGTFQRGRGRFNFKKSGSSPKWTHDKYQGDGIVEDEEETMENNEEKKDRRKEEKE

Row | Variant | effect of a mutation on the interaction
1 | S197A;S198A | decreasing interaction
2 | G214A;L217A | decreasing interaction
3 | I206A;R207A;E209A | decreasing interaction
4 | D70A;D72A;Y74A | decreasing interaction
5 | L76A;K78A;E80A;L83A | decreasing interaction
6 | S54F | decreasing interaction
7 | S175A;S176A | decreasing interaction
8 | S192A;S194A;S195A;S196A | decreasing interaction
9 | R45A;R46A;R47A | decreasing interaction
10 | R207A;P208A | decreasing interaction
